Measurements: patent US7935785B2, “Selective substrates for matrix metalloproteinases” (Sanford-Burnham Medical Research Institute, priority 2001, dated 2011)

Tests used:
MMP-2 = target: T1, MMP-2 (Homo sapiens, UniProt P08253); test: Cleavage of recombinant Eph receptor-Fc fusion proteins, SDS-PAGE; type: biochemical; settings: 1.8 μM fusion protein, 280 nM MMP-2, 4 hours, 37° C.
T1 construct: the cDNA encoding the catalytic domain of MMP-2 was generated by PCR; made in house; host or cells: HEK 293 cells
Procedure: (§1) Recombinant fusion proteins between EphB1, EphB2 and the Fc domain of IgG were purchased from R&D Systems Inc. In these constructs, the extracellular domain of rat EphB1 (amino acid residues 1-538) and mouse EphB2 (amino acid residues 1-548) are fused to the Fc region of human IgG via a short polypeptide linker. The fusion proteins (1.8 μM) were incubated for 4 hours at 37° C. with 280 nM of either MMP-2 or MMP-9. Following incubation, samples were resolved by 10% SDS-PAGE, and samples were visualized by Coomassie staining. The N-terminus of the cleaved Eph B1 was determined by automated Edman degradation of protein blotted to PVDF membranes.
(§2) The Eph B1 and Eph B2 fusion proteins were incubated with equimolar amounts (280 nM) of MMP-2 and MMP-9 for four hours. The extent of hydrolysis was gauged by SDS-PAGE (FIG. 3). […] The extent of cleavage by MMP-9 was far lower (lane 3). […] The site of hydrolysis within Eph B1 was determined by sequencing the N-terminus of one of the released fragments. […] This is one of the predicted cleavage sites in EphB1. These findings illustrate that motifs found to be selective for MMP-2 by substrate phage display, can act as selective substrates within the context of whole proteins. This experiment also illustrates that the three dimensional conformation of the putative cleavage site will also control the extent of hydrolysis.

MMP-9 = target: T2, MMP-9 (Homo sapiens, UniProt P14780); test: as above; type: biochemical; settings: 1.8 μM fusion protein, 280 nM MMP-9, 4 hours, 37° C.
T2 construct: a recombinant form of the catalytic domain of MMP-9 expressed in HEK 293 cells; made in house; host or cells: HEK 293 cells
Procedure: as §1, §2

T2 sequence (P14780 94-444 limits assumed): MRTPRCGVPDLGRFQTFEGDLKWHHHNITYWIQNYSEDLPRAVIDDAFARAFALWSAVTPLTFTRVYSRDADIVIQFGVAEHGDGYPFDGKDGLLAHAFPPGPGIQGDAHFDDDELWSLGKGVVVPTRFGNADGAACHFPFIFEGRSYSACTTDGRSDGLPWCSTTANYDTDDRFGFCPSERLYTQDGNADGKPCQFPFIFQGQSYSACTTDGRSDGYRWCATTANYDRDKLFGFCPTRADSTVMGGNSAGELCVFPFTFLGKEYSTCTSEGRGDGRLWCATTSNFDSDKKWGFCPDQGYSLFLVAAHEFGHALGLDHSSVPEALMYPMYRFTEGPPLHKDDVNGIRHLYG
T1 sequence (P08253 110-465 limits assumed): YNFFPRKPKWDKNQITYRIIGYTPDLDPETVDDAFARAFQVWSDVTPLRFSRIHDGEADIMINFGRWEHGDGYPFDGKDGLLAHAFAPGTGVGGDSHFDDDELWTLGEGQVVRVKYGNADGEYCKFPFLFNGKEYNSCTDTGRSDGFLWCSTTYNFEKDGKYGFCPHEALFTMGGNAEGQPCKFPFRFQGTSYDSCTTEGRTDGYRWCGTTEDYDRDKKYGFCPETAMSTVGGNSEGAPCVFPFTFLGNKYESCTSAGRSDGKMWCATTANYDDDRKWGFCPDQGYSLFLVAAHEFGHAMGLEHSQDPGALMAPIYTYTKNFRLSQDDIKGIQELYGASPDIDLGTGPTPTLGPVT

extent of hydrolysis by MMP-2 (SDS-PAGE) (MMP-2): Neither protease cleaved | extent of hydrolysis by MMP-9 (SDS-PAGE) (MMP-9): Neither protease cleaved
B1: Eph B2 fusion protein: extracellular domain of mouse EphB2 (residues 1-548) fused to Fc region of human IgG, R&D Systems (protein)
chain: VEETLMDSTTATAELGWMVHPPSGWEEVSGYDENMNTIRTYQVCNVFESSQNNWLRTKFIRRRGAHRIHVEMKFSVRDCSSIPSVPGSCKETFNLYYYEADFDLATKTFPNWMENPWVKVDTIAADESFSQVDLGGRVMKINTEVRSFGPVSRNGFYLAFQDYGGCMSLIAVRVFYRKCPRIIQNGAIFQETLSGAESTSLVAARGSCIANAEEVDVPIKLYCNGDGEWLVPIGRCMCKAGFEAVENGTVCRGCPSGTFKANQGDEACTHCPINSRTTSEGATNCVCRNGYYRADLDPLDMPCTTIPSAPQAVISSVNETSLMLEWTPPRDSGGREDLVYNIICKSCGSGRGACTRCGDNVQYAPRQLGLTEPRIYISDLLAHTQYTFEIQAVNGVTDQSPFSPQFASVNITTNQAAPSAVSIMHQVSRTVDSITLSWSQPDQPNGVILDYELQYYEKELSEYNATAIKSPTNTVTVQGLKAGAIYVFQVRARTVAGYGRYSGKMYFQTMTEAEYQTSIKEKLPLIVGSS
modifications: left off: small tags and cut ends; a dimerising Fc or GST
notes: extracellular domain of mouse EphB2 (residues 1-548) fused to Fc region of human IgG, R&D Systems
